# Assay results: patent publication US20200289575A1 (NSAGE, published 2020)
# B1: sRAGE (soluble Receptor for Advanced Glycation End-products), cat. RD172116100, Biovendor (receptor)
# chain: MRGSHHHHHHGMASAQNITARIGEPLVLKCKGAPKKPPQRLEWKLNTGRTEAWKVLSPQGGGPWDSVARVLPNGSLFLPAVGIQDEGIFRCQAMNRNGKETKSNYRVRVYQIPGKPEIVDSASELTAGVPNKVGTCVSEGSYPAGTLSWHLDGKPLVPNEKGVSVKEQTRRHPETGLFTLQSELMVTPARGGDPRPTFSCSFSPGLPRHRALRTAPIQPRVWEPVPLEEVQLVVEPEGGAVAPGGTVTLTCEVPAQPSPQIHWMKDGVPLPLPPSPVLILPEIGPQDQGTYSCVATHSSHGPQESRAVSISIIEPGEEGPTAGEGFDKVREAEDSPQHM
# Molecular target: AGE-albumin (advanced glycation end-product albumin), Sigma-Aldrich
# Assay: cell-based or functional assay
binder,measurement,value
B1,cell viability of HT22 cells by MTT assay (percent relative to control),101%
